This is an account of results in the nanobody polyreactivity screen of Harvey et al. (2022).

The data set is described as follows: yeast display, Sf9 membrane polyspecificity reagent, FACS + sequencing; frameworks hold sequencing errors. The method, boiled down:
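Galactose-induced (36–48 hours) yeast carrying a synthetic nanobody display library were exposed to 10% biotinylated, detergent-solubilized Sf9 membrane reagent at 4 °C for 1 hour. FACS followed streptavidin microbead enrichment, using low and high (top ~1%) gates for expression (anti-HA) and reagent binding (streptavidin). Colony PCR, MiSeq 2 × 250 sequencing and CDR-length filtering followed. Labels for polyreactivity reflect the gate of origin.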
For “QVQLVESGGGLVQAGGSLRLSCAASGFIFGAYAMGWYRQAPGKERELVAAISRRGGSTYYADSVKGRFTISRDNAKNTVYLQMNSLKPEDTAVYYCAADISGSYYRPQYDYWGQGTQVTVSS”, the “polyreactivity (PSR sort gate)” value was “low polyreactivity”.
In the case of “QVQLVESGGGLVQAGGSLRLSCAASGFIFGAYAMGWYRQAPGKERELVAAITKSGGRTYYADSVKGRFTISRDNAKNTVYLQMNSLKPEDTAVYYCAAVTRYPGEYDYWGQGTQVTVSS” it was “high polyreactivity”; in that of “QVQLVESGGGLVQAGGSLRLSCAASGFIFGDYAMGWYRQAPGKERELVAAINYSGGSTYYADSVKGRFTISRDNAKNTVYLQMNSLKPEDTAVYYCAALIYGLVGWGQGTQVTVSS”, “low polyreactivity”.
For the sequence “QVQLVESGGGLVQAGGSLRLSCAASGFIFGGNAMGWYRQAPGKERELVAAVSWIAGSTHYADSVKGRFTISRDNAKNTVYLQMNSLKPEDTAVYYCAADHEGSLSRGFTETDYDYWGQGTQVTVSS”, the “polyreactivity (PSR sort gate)” value was “low polyreactivity”.
Turning to “QVQLVESGGGLVQAGGSLRLSCAASGFIFGGNTMGWSRQAPGKERELVASITLSGGRTHYADSVKGRFTISRDNAKNTVYLQMNSLKPEDTAVYYCARSLASYLHAGDTEYNGSYWGQGTQVTVSS”, the “polyreactivity (PSR sort gate)” value is given as “low polyreactivity”.
Then “QVQLVESGGGLVQAGGSLRLSCAASGFIFGGYAMGWYRQAHGKEREWVAAISRSGGSTYYADSVKGRFTISRDNAKNTVYLQMNSLKPEDTAVYYCNAVPRRQGFNYWGQGTQVTVSS”, with “high polyreactivity”.
Turning to “QVQLVESGGGLVQAGGSLRLSCAASGFIFGGYAMGWYRQAPGKERELVAAISRSGGSTYYADSVKGRFTISRDNEKNTVYLQMNSVKPEDTAVYYCNAVPRRQGFNYWGQCTQVTVSS”, the “polyreactivity (PSR sort gate)” value is “high polyreactivity”.
For “QVQLVESGGGLVQAGGSLRLSCAASGFIFGGYAMGWYRQAPGKERELVAAITGGGTTYYADSVKGRFTISRDNAKNTVYLQMNSLKPEDTAVYYCAAAYRLGYHKYYYWGQGTQVTVSS”, the “polyreactivity (PSR sort gate)” value is “high polyreactivity”.
Then “QVQLVESGGGLVQAGGSLRLSCAASGFIFGGYAMGWYRQAPGKERELVARITRSGGSTYYADSVKGRFTISRDNAKNTVYLQMNSLKPEDTAVYYCNARYGKPAYQYGMDYWGQGTQVTVSS”, with “low polyreactivity”; and “QVQLVESGGGLVQAGGSLRLSCAASGFIFGHNAMGWYRQAPGKERELVASISKSGGDTYYADSVKGRFTISRDNAKNTVYLQMNSLKPEDTAVYYCAAQGAVFEILDYWGQGTQVTVSS”, with “low polyreactivity”.
In the case of “QVQLVESGGGLVQAGGSLRLSCAASGFIFGHYAMGWYRQAPGKERELVATISSGGSTKYADSVKGRFTISRDNAKNTVYLQMNSLKPEDTAVYYCAKKLWYLYHHYDYWGQGTQVTVSS” it was “low polyreactivity”; in that of “QVQLVESGGGLVQAGGSLRLSCAASGFIFGINAMGWYRQAPGKEREFVATITSGGGTNYADSVKGLFTISRDNAKNTVYLQMHSLKPEDTAVYYGAAEEDYIYFYVSMDYWGQGTQVTVSS”, “low polyreactivity”.
As to “QVQLVESGGGLVQAGGSLRLSCAASGFIFGIYAMGWYRQAPGNEWEFVAAITGSAGSTYYADSVKGRFTISRDNAKNTVYLQMNSLKPEDTAVYYCATDVLPRKYDSDYPSGAYDYWGQGTQVTVSS”, the “polyreactivity (PSR sort gate)” value was “low polyreactivity”.
Then “QVQLVESGGGLVQAGGSLRLSCAASGFIFGKNAMGWYRQAPGKERELVAVISWRGSSTYYADSVKGRFTISRDNAKNTVYLQMNSLKPEDTAVYYCAARYPARGTLYYWGQGTQVTVSS”, with “low polyreactivity”; and “QVQLVESGGGLVQAGGSLRLSCAASGFIFGKYAMGWYRQAPGKERELVAAISRSSRTFYADSVKGRFTISRDNAKNTVYLQMNSRKPEDTAVYYCAVKKRAPDGDYWGQGTQVTVSS”, with “high polyreactivity”.
With “QVQLVESGGGLVQAGGSLRLSCAASGFIFGLNAMGWYRPAPGKERELVAAIRSASSTNYADSVKGRFTISRDNAKNTVYLQMNSLKPEDTAVYYCAAEYVTYQQGFWGYDYWGQGTQVTVSS”, the “polyreactivity (PSR sort gate)” value is “low polyreactivity”.
In the case of “QVQLVESGGGLVQAGGSLRLSCAASGFIFGNYAMGWYRPAPGKERELVATITRRGGRTYYADSVKGRFTISRDNAKNTVYLQMNSLKPEDTAVYYCNAGAYYLLSGQDDMDYWGQGTQVTVSS” it was “high polyreactivity”.
As to “QVQLVESGGGLVQAGGSLRLSCAASGFIFGPYAMGWYRQAPGKERELVAASWRGGSTYYADSVKGRFTISRDNAKNTVYLQMNSLKPEDTAVYYCAADVFYSLYYYWGQGTQVTVSS”, the “polyreactivity (PSR sort gate)” value was “low polyreactivity”.
Then “QVQLVESGGGLVQAGGSLRLSCAASGFIFGQYAMGWYRQAPGKERELVAAISWSGGRTNYADSVKGRFTISRDNAKNTVYLQMNSLKPEDTAVYYCAARKGKYPQYPYGYWGQGTQVTVSA”, with “high polyreactivity”; and “QVQLVESGGGLVQAGGSLRLSCAASGFIFGRYTMGWYRQAPGKERELVAAITYSGNTYYADSVKGRFTISRDNAKNTVYLQMNSLKPEDTAVYYCNAYGANFRAFRNAYKYWGQGTQVTVSS”, with “high polyreactivity”.
As to “QVQLVESGGGLVQAGGSLRLSCAASGFIFGSNAMGWYRQAPGKERELVAAISSRGGRTYYADSVKGRFTISRDNAKNTVYLQMNSLKPEDTAVYYCATVRYRALRYDYWGQGTQVTVSS”, the “polyreactivity (PSR sort gate)” value is on record as “high polyreactivity”.
Then “QVQLVESGGGLVQAGGSLRLSCAASGFIFGSYAMGWYRQAPGKERELVAAINWSGGSTYYADSVKGRFTISRDNAKNTVYLQMNSLKPDDTAVYYCAADRTYYSFLYYPWVDFDYWGQGTQVTVSS”, with “high polyreactivity”.
As for “QVQLVESGGGLVQAGGSLRLSCAASGFIFGTNAMGWYRQAPGKERELVASISSTGGSTYYADSVKGRFTISRDNAKNTVYLQMNSLKPEDTAVYYFSADPYPEYIRYLPGVDYWGQGTQVTVSS”, the “polyreactivity (PSR sort gate)” value is “low polyreactivity”.
Then “QVQLVESGGGLVQAGGSLRLSCAASGFIFGTNTMGWYRQAPGKERELVAAITSVGSTNYADSVKGRFTISRDNAKNTVYLQMNSLKPEDTAVYYCPATLYYQYGGDYWGQGTQVTVSS”, with “low polyreactivity”; and “QVQLVESGGGLVQAGGSLRLSCAASGFIFGTYAMGWYRQAPGKERELVAAISQSGGRTYYADSVKGRFTISRDNAKNTVYLQMISLKPEDTAVYYCAARHRPTGISTGYDYWGQGTQVTVSS”, with “high polyreactivity”.
Take “QVQLVESGGGLVQAGGSLRLSCAASGFIFGTYAMGWYRQAPGKERELVAAISVGGGSTYYADSVKGRFTISRDTAKNTVYLQMNSLKPEDTAVYYCAAVQLYQKHQITYVAHEYWGQGTQVTVSS”: the “polyreactivity (PSR sort gate)” value is “low polyreactivity”.
Then “QVQLVESGGGLVQAGGSLRLSCAASGFIFGTYVMGWYRQAPGKERELVAAISESGGRTYYADSVKGRFTISRDNAKNTVYLQMNSLKPEDTADYYCAKLRHIRFHYYYGYQSYYYWVQGTQVTVSS”, with “high polyreactivity”; and “QVQLVESGGGLVQAGGSLRLSCAASGFIFGVNAMGWYRQARGKERELVAAISTSGGSTYYADSVKGRFTISRDNAKNTVYLQMNSLKPEDTAVYYCAALLHRWAYGTYGYVYWGQGSQVTVSS”, with “high polyreactivity”; and “QVQLVESGGGLVQAGGSLRLSCAASGFIFGVYAMGWYRKATGKERELVAAITTRAGTNYADSVKGRFTISRDNAKNTVYLQMNSLKPEDPAVYYCNAVGWYLLPYDYWGQGTQVTVSS”, with “low polyreactivity”.
On to “QVQLVESGGGLVQAGGSLRLSCAASGFIFGWNAMGWYRQAPGKEREFVAAITSSGTSTYYADSVKGRFTISRDNAKNTVYLQMNSLKPEDTAVYYCATEGWPFYPARDYDYWGQGTQVTVSS”, for which the “polyreactivity (PSR sort gate)” value is “low polyreactivity”.
